In test [1] the target is T1, His-tagged ErbB3 protein (Homo sapiens (species , human …, UniProt P21860)).
T1 construct: Receptor tyrosine-protein kinase ErbB3; also called receptor tyrosine-protein kinase 3; source: bought: Invitrogen
Put plainly: ELISA; plates coated with anti-his antibody; His-tagged EGFR or ErbB3 captured in PBS with 1% BSA, 1 h RT; gradient-diluted antibodies or DVD-Ig proteins 1 h RT; detected with HRP-conjugated goat-anti-human antibodies. The settings on record: both partners purified. In general terms: An ELISA detects its analyte on a solid surface through an enzyme-linked reagent.

Test [2] concerns the target T2, His-tagged EGFR protein (Homo sapiens (species , human …, UniProt P00533)).
T2 construct: Epidermal growth factor receptor (EGFR); also called epidermal growth factor receptor; source: bought: Invitrogen
Described as above. The settings on record: both partners purified.

In PMC4440733 (PLoS ONE, 2015) one finds EC50 data, which are given here for one molecule.

By EC50 is commonly meant the concentration at which the effect is half-maximal.

T1 sequence (P21860 20-643): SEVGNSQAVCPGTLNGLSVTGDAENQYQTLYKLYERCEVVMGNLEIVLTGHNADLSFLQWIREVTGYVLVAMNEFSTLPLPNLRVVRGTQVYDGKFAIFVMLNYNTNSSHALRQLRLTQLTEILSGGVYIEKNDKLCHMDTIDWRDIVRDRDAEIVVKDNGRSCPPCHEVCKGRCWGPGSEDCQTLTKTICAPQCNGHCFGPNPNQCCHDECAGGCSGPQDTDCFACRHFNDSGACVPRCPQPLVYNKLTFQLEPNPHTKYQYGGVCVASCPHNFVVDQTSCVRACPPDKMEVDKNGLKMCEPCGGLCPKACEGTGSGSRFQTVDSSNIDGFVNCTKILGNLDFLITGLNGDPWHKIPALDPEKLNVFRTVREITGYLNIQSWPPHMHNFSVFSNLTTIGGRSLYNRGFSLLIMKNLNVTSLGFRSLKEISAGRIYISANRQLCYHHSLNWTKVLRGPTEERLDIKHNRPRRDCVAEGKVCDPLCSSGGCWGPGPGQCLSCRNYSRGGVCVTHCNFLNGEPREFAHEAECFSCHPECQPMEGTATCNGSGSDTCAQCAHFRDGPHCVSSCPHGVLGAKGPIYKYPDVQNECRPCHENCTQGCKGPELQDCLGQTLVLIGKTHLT

B1: anti-EGFR/ErbB3 bispecific Ab (bsAb), generated from published MEHD7945A sequences (bispecific antibody, V domains shown)
VH: EVQLVESGGGLVQPGGSLRLSCAASGFTLSGDWIHWVRQAPGKGLEWVGEISAAGGYTDYADSVKGRFTISADTSKNTAYLQMNSLRAEDTAVYYCARESRVSFEAAMDYWGQGTLVTVSS
VL: DIQMTQSPSSLSASVGDRVTITCRASQNIATDVAWYQQKPGKAPKLLIYSASFLYSGVPSRFSGSGSGTDFTLTISSLQPEDFATYYCQQSEPEPYTFGQGTKVEIK
notes: also called anti-EGFR/ErbB3 bsAb; two-in-one antibody; source: human embryonic kidney 293 cells, transient, purified (protein A)
For B1, the results for the EC50 in test [1] and in test [2] were 5.7 nM and 1.3 nM, respectively.
